For one substance, in vitro digestion of glc-5mdC pUC19 DNA by untagged BrxU (1 mM ATP) after incubation with a titration of IPI*; excess of IPI* sufficient for robust inhibition results are on record in PMC12409352.

This experiment addresses BrxU, untagged (GmrSD-family Type IV restriction enzyme from Escherichia fergusonii) (Escherichia fergusonii).

“IPI* (mature, active form of phage T4 internal protein I, product of ip1) (natural protein)” gave an in vitro digestion of glc-5mdC pUC19 DNA by untagged BrxU (1 mM ATP) after incubation with a titration of IPI*; excess of IPI* sufficient for robust inhibition of 30 fold excess.
